Measured values reported in article PMC8816947.

Key:
[1] = biological target: in vivo produced BG505.MD39 (DNA-encoded, pMD39_opt, in mouse muscle) (HIV-1 (isolate BG505)); assay: native gel or EMSA
[2] = biological target: BG505.MD39 native-like trimer (stabilized HIV Env gp140 ectodomain), sequence optimized, recombinant (HIV-1 (isolate BG505)); assay: SEC
[3] = biological target: BG505.MD39 native-like trimer (stabilized HIV Env gp140 ectodomain), sequence optimized, recombinant (HIV-1 (isolate BG505)); assay: SEC-MALS
[4] = biological target: BG505.MD39 native-like trimer (stabilized HIV Env gp140 ectodomain), sequence optimized, recombinant (HIV-1 (isolate BG505)); assay: negative-stain EM
[5] = biological target: BG505.MD39 native-like trimer (stabilized HIV Env gp140 ectodomain), sequence optimized, recombinant (HIV-1 (isolate BG505)); assay: native gel or EMSA

## in vivo produced BG505.MD39 (DNA-encoded, pMD39_opt, in mouse muscle) (complex)
[1]
  stoichiometry N: 3

## BG505.MD39 native-like trimer (stabilized HIV Env gp140 ectodomain), sequence optimized, recombinant (complex)
[2]
  stoichiometry N: 3
[3]
  stoichiometry N: 3
[4]
  stoichiometry N: 3
[5]
  stoichiometry N: 3
